Reference: patent US20100209435 (published 2010)
Residue numbers refer to the chain shown, from its start.

T1: E. coli mOPGL 158 (mouse, UniProt O35235)
T1 chain: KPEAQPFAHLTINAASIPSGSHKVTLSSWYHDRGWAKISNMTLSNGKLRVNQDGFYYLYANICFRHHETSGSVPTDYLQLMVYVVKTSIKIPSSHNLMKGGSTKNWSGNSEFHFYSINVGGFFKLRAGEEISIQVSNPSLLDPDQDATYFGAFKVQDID

T2: FLAG-murine OPGL[158-316]/DE (mouse, UniProt O35235)
T2 chain: T1 chain with S72D, V73L, P74A, D76E

T3: CHO hOPGL 140 (human, UniProt O14788)
T3 chain: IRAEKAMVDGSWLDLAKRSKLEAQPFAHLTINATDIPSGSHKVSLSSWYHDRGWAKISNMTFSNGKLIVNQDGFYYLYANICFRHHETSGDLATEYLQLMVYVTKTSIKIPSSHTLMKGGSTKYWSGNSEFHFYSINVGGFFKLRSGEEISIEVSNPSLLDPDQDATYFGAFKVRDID

B1: 18B2 (antibody, V domains shown)
VH: EVQLVQSGGGLVHPGGSLRLSCVGSRFTFSAYPMHWVRQAPGKGLEWVSGIGSGGGTNYADSVKGRFTISRDTAKNSLYLQMNSLRAEDMAVYYCARGRNSFDYWGQGTLVTVSS
VL: DIQMTQSPSSLSASVGDRVTITCRASQGISTWLAWYQQKPEKAPKSLIYAASSLQSGVPSRFSGSGSGTDFTLTISSLQPEDFATYYCQQYNSYPPTFGQGTKVEIKR
B2: 2D8 (antibody, V domains shown)
VH: EVQLVQSGGGLVHPGGSLRLSCAGSGFTFSSYGMHWVRQAPGKGLEWVSGIGTGGGTYYADSVKGRFTISRDNVKNSLYLQMNSLRAEDMAVYYCARKNWGWFDYWGQGTLVTVSS
VL: EIVLTQSPATLSLSPGERATLSCRASQSISSYLAWYQQKPGQAPRLLIYDASNRATGIPARFSGSGSGTDFTLTISSLEPEDFAVYYCQQRSKWPPYTFGQGTKLEIKR
B3: 2E11 (antibody, V domains shown)
VH: EVQLVQSGGDLVHPGGSLRLSCVGSGFTFSHYPLHWVRQAPGKGLEWISGIHTGGGTYYTDSVKGRFTISSDNAKNSLYLQMNTLRAEDMAVYYCARGRNSFDYWGQGTLVIVSS
VL: B1 VL with T31S, P80S, K103R, V104L
B4: 16E1 (antibody, V domains shown)
VH: EVQLVQSGGGLVHPGGSLRLSCAGSGFTFSGHALHWVRQAPGKGLEWVSGIGTHGGTYYADSVKGRFTISRDNAKNSLFLQMNSLSAEDMAVYYCTRRNWGQFDYWGQGTLVTVSS
VL: B2 VL with I29V, K93N
B5: 9H7 (antibody, V domains shown)
VH: B2 VH with A23E, Y32N, A40T, G54A, N76K, V92I, A96V, N99D, Y105P, T110A
VL: B2 VL
B6: 22B3 (antibody, V domains shown)
VH: B2 VH with A23E, Y32N, A40T, G54A, N76K, V92I, A96V, Y105P, T110A
VL: B2 VL with I29V, S30N, Y36F, V85I, K93N, Y97F

Target: T1, E. coli mOPGL 158
Assay: ELISA

binding result	Binder
no binding	B1
no binding	B2

Target: T2, FLAG-murine OPGL[158-316]/DE
Assay: ELISA

binding result	Binder
no binding	B1
no binding	B3

Target: T3, CHO hOPGL 140
Assay: SPR

Kd	Binder
211 pM	B1
292 pM	B3
92 pM	B2
63.3 pM	B4
193 pM	B5
33.7 pM	B6

Target: T1, E. coli mOPGL 158
Assay: SPR

binding result	Binder
no binding	B3
no binding	B4
no binding	B5
no binding	B6
